# Article doi:10.1101/2021.09.17.460839, “Structural and functional characterization of Rv0792c from Mycobacterium tuberculosis: identifying small molecule inhibitors against GntR protein” (bioRxiv, 2021)
# Target: the molecule itself
# Test: AUC
protein,measurement,value
"(His)6-Rv0792c, wild type, GntR family (HutC subfamily) transcription factor from M. tuberculosis (natural protein, not shown: His6, N-terminal, kept) MTSVKLDLDAADLRISRGSVPASTQLAEALKAQIIQQRLPRGGRLPSERELIDRSGLSRVTVRAAVGMLQRQGWLVRRQGLGTFVADPVEQELSCGVRTITEVLLSCGVTPQVDVLSHQTGPAPQRISETLGLVEVLCIRRRIRTGDQPLALVTAYLPPGVGPAVEPLLSGSADTETTYAMWERRLGVRIAQATHEIHAAGASPDVADALGLAVGSPVLVVDRTSYTNDGKPLEVVVFHHRPERYQFSVTLPRTLPGSGAGIIEKRDFA",stoichiometry N,2
